Molecular target: T1, TnMUC1 in whole cell lysates of DU145 prostate cancer cells (single band of >200 kDa) (UniProt P15941 24-1255, limits assumed, Tn glycoform of MUC1 (aberrant O-glycosylation); sites not stated)
T1 construct: mature; also called mature TnMUC1
Assay: Western blot on whole cell lysates of the prostate cancer cell line DU145

T1 sequence (P15941 24-1255 limits assumed): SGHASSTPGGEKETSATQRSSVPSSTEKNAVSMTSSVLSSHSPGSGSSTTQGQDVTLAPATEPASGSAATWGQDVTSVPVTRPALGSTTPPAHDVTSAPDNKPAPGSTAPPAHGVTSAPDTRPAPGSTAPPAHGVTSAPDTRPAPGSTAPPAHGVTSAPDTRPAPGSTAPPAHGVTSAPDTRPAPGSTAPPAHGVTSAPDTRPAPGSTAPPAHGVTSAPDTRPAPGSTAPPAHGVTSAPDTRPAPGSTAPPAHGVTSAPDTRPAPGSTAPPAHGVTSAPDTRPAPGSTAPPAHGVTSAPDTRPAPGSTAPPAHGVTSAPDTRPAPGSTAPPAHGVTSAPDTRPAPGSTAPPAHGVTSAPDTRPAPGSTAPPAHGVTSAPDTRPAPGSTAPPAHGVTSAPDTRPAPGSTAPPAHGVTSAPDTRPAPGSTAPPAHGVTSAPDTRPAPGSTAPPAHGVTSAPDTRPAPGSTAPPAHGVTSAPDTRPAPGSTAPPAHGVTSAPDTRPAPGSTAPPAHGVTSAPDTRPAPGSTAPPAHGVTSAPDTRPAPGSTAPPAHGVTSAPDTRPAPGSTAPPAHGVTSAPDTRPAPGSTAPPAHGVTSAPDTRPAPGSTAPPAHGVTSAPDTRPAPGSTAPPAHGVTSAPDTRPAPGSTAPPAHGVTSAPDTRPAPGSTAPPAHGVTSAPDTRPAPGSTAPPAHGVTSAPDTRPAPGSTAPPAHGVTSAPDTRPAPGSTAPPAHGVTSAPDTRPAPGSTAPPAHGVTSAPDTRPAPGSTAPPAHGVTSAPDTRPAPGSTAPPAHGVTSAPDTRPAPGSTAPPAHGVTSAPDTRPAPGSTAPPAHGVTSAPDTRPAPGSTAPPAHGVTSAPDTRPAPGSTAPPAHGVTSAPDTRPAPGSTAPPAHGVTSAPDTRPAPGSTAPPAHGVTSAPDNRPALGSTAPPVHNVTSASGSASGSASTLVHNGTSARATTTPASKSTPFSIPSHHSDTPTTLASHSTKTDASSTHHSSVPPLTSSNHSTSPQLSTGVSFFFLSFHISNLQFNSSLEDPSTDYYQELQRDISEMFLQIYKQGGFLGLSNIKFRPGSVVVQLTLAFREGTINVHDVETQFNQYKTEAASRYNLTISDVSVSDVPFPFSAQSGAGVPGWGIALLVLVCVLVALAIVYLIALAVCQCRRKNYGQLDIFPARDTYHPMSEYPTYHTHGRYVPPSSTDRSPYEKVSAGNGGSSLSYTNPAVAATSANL

B1: Anti-TnMUC1 murine monoclonal antibody clone 5E5 (antibody, V domains shown)
VH: QVQLQQSDAELVKPGSSVKISCKASGYTFTDHAIHWVKQKPEQGLEWIGHFSPGNTDIKYNDKFKGKATLTVDRSSSTAYMQLNSLTSEDSAVYFCKTSTFFFDYWGQGTTLTVSS
VL: ELVMTQSPSSLTVTAGEKVTMICKSSQSLLNSGDQKNYLTWYQQKPGQPPKLLIFWASTRESGVPDRFTGSGSGTDFTLTISSVQAEDLAVYYCQNDYSYPLTFGAGTKLELK
notes: also called 5E5 mAb; mAb 5E5
B1: binds.

Source: patent publication US20210338733A1 (University of Pennsylvania, published 2021)
